Target: Fab with lambda light chain (Cλ)
Assay: ELISA; reference is the Fab with kappa light chain

EC50 ratio, Cλ Fab over CK Fab: 7 fold
Substance: wild-type Protein-G (C2 domain / Fab binding domain)
